Blank lines part the entries; values can stand above or below the substance they belong to.
How the values were obtained:
[1] = biological target: CrCFAP410-CTD, C-terminal domain of Chlamydomonas reinhardtii CFAP410, wild type (C. reinhardtii); experiment: crystal structure; synthetic CTD polypeptides; TbCFAP410-CTD in 2.0 M (NH4)2SO4, 5% iso-propanol, 4°C; HsCFAP410-CTD in 1.5 M NaCl, 10% ethanol, 22°C; CrCFAP410-CTD in 0.02 M CaCl2, 0.1 M sodium acetate pH 5.0, 30% MPD, 4°C
[2] = biological target: CrCFAP410-CTD, C-terminal domain of Chlamydomonas reinhardtii CFAP410, wild type (C. reinhardtii); experiment: SEC-MALS; static light scattering coupled to SEC; 50 μl at 2 mg/ml on Superdex S-200 10/300 GL; 20 mM HEPES pH 7.5, 100 mM NaCl, 1 mM DTT, 1% glycerol; Mini-DAWN Treos
[3] = biological target: TbCFAP410-CTD, C-terminal domain of Trypanosoma brucei CFAP410, wild type (T. brucei); experiment: crystal structure; synthetic CTD polypeptides; TbCFAP410-CTD in 2.0 M (NH4)2SO4, 5% iso-propanol, 4°C; HsCFAP410-CTD in 1.5 M NaCl, 10% ethanol, 22°C; CrCFAP410-CTD in 0.02 M CaCl2, 0.1 M sodium acetate pH 5.0, 30% MPD, 4°C
[4] = biological target: HsCFAP410-CTD, C-terminal domain of Homo sapiens cilia- and flagella-associated protein 410, wild type (human) (UniProt O43822); experiment: as above
[5] = biological target: CrCFAP410-CTD mutant A219E (C. reinhardtii); experiment: SEC-MALS; static light scattering coupled to SEC; 50 μl at 2 mg/ml on Superdex S-200 10/300 GL; 20 mM HEPES pH 7.5, 100 mM NaCl, 1 mM DTT, 1% glycerol; Mini-DAWN Treos
[6] = biological target: CrCFAP410-CTD mutant L224P; experiment: static light scattering (SLS); settings: parent: 15.62
[7] = biological target: CrCFAP410-CTD mutant A219E; experiment: static light scattering (SLS); settings: parent: 15.62

Substance: TbCFAP410-CTD, C-terminal domain of Trypanosoma brucei CFAP410, wild type (domain or fragment)
stoichiometry N [3]: 4

Substance: HsCFAP410-CTD, C-terminal domain of Homo sapiens cilia- and flagella-associated protein 410, wild type (from UniProt O43822 212-246) (domain or fragment)
stoichiometry N [4]: 4

Substance: CrCFAP410-CTD, C-terminal domain of Chlamydomonas reinhardtii CFAP410, wild type A219E
other: molecular weight (SLS) [7]: 8.35 kDa

Continued, values first:

stoichiometry N [1]: 4 | stoichiometry N [2]: 4
Substance: CrCFAP410-CTD, C-terminal domain of Chlamydomonas reinhardtii CFAP410, wild type (domain or fragment)

stoichiometry N [5]: 2
Substance: CrCFAP410-CTD mutant A219E (domain or fragment)

other: molecular weight (SLS) [6]: 4.16 kDa
Substance: CrCFAP410-CTD, C-terminal domain of Chlamydomonas reinhardtii CFAP410, wild type L224P

Source: article PMC11500688
